Reference: patent US20060078622A1, “Pharmaceutical formulations containing microparticles or nanoparticles of a delivery agent” (priority 2004, published 2006)
“And” between values parts separate entries of the source, which are not always exact repeats. Equal entries are not always repeated. Where two headings read alike, the source gives them in different places.

Assays:
[1] = Insulin and 4-CNAB stability in simulated gastric fluid (HPLC); conditions: 37° C.
Method: The SGF was prepared with and without pepsin, a gastric enzyme. SGF pH 1.2 was prepared as per the USP NF 26 guidelines. 2 g sodium chloride and 3.2 g of pepsin were weighed and added to a suitable container, and deionized water was added to reach one liter in volume. If necessary, the pH was adjusted to 1.2 by addition of concentrated HCl or NaOH. A second SGF solution omitting the pepsin was also prepared.
Four 50 ml samples of SGF (two with pepsin and two without) were placed into a jacketed vessel connected to a circulating water bath set at 37° C. The solutions were stirred with magnetic stir bars for ten minutes to allow the solutions to reach 37° C. and reach thermal equilibrium.
The term “% of theoretical” as used herein, means the percent of the concentration (mg/mL) of withdrawn solution at the time-point the sample was taken as compared to the theoretical concentration (mg/mL) of the measuring component for experiment. The standard of deviation for the HPLC analysis is ±5%.

[2] = Estimates of bioavailability (absolute, portal, relative to subcutaneous)
Excerpt: (§1) This value was assumed to be constant in the estimates of absolute bioavailability.
The portal bioavailability provides an estimate of drug absorption from oral delivery. […] This value is used to estimate bioavailability relative to subcutaneous.

Glucose = Glucose after subcutaneous (SC) administration of insulin; assay type: in vivo, rat
[3] = IV
Excerpt: as §1

[4] = Stability of insulin in simulated intestinal fluid (HPLC); conditions: for stability of insulin / Insulin % of theoretical: 37° C.
Method: The SIF solutions were prepared with and without pancreatic enzyme. SIF pH 7.5 was prepared as per the USP NF 26 guidelines. SIF was prepared by addition of 6.8 g monobasic potassium phosphate and 10 g of pancreatin into a suitable vessel, and deionized water was added to reach a total volume of one liter. If necessary, the pH was adjusted to 7.5 by addition of 0.2 N sodium hydroxide. A second SIF solution omitting the pancreatin, an intestinal enzyme, was also prepared.
Four 50 ml samples of SIF (two with pancreatin and two without) were placed into a jacketed vessel connected to a circulating water bath set at 37° C. The solutions were stirred with magnetic stir bars for ten minutes to allow the solutions to reach 37° C. and reach thermal equilibrium.

[5] = dose 8 μg/kg, individual animals
[6] = dose 9 μg/kg, individual animals

Insulin: Recombinant human zinc insulin
insulin degraded ([1]; SGF containing pepsin, first sampling point): 97% | insulin remained ([1]; SGF containing pepsin, first sampling point (0 minutes)): 3.0% | Insulin % of theoretical ([1]; SGF no enzymes, with 4-CNAB, 30 minutes): 105.7% | Insulin % of theoretical ([1]; SGF no enzymes, with 4-CNAB, 24 h): 0% | Insulin % of theoretical ([1]; SGF with pepsin, with 4-CNAB, 0 minutes): 3.0% | Insulin % of theoretical ([1]; SGF with pepsin, without 4-CNAB, 0 minutes): 3.0% | Insulin % of theoretical ([1]; SGF without enzymes, without 4-CNAB, 10 minutes): 100.4% | Insulin % of theoretical ([1]; SGF without enzymes, without 4-CNAB, 30 minutes): 100.1% | Insulin % of theoretical ([1]; SGF without enzymes, without 4-CNAB, 1 h): 99.4% | Insulin % of theoretical ([1]; SGF without enzymes, without 4-CNAB, 24 h): 0% | time insulin is stable ([1]; SGF without pepsin): ≥ 2 h | BA ([2]; SC (subcutaneous) dosing): 55.67% | absolute bioavailability ([2]; SC administration, rat model): approximately 56% | maximum absolute bioavailability of insulin ([2]; from oral delivery or any other 100% GI absorption into the portal vein, from intraportal results, rat model): approximately 60% | Glucose (Glucose; study 3, 0.05 mg/kg, time 0): 83 mg/dL | Glucose (Glucose; study 3, 0.05 mg/kg, time 15): 66 mg/dL | Glucose (Glucose; study 3, 0.05 mg/kg, time 30): 60 mg/dL | Glucose (Glucose; study 3, 0.05 mg/kg, time 45): 61 mg/dL | Glucose (Glucose; study 3, 0.05 mg/kg, time 60): 73 mg/dL | Glucose (Glucose; study 3, 0.05 mg/kg, time 120): 98 mg/dL | Glucose (Glucose; study 3, 0.05 mg/kg, time 180): 105 mg/dL | Glucose (Glucose; study 4, 0.05 mg/kg, time 0): 73 mg/dL | Glucose (Glucose; study 4, 0.05 mg/kg, time 15): 66 mg/dL | Glucose (Glucose; study 4, 0.05 mg/kg, time 30): 59 mg/dL | Glucose (Glucose; study 4, 0.05 mg/kg, time 45): 64 mg/dL | Glucose (Glucose; study 4, 0.05 mg/kg, time 60): 72 mg/dL | Glucose (Glucose; study 4, 0.05 mg/kg, time 90): 88 mg/dL | Glucose (Glucose; study 4, 0.05 mg/kg, time 120): 110 mg/dL | Glucose (Glucose; study 5, 0.05 mg/kg, time 0): 60 mg/dL | Glucose (Glucose; study 5, 0.05 mg/kg, time 15): 42 mg/dL | Glucose (Glucose; study 5, 0.05 mg/kg, time 30): 38 mg/dL | Glucose (Glucose; study 5, 0.05 mg/kg, time 45): 42 mg/dL | Glucose (Glucose; study 5, 0.05 mg/kg, time 60): 48 mg/dL | Glucose (Glucose; study 5, 0.05 mg/kg, time 90): 52 mg/dL | Glucose (Glucose; study 5, 0.05 mg/kg, time 120): 66 mg/dL | Glucose (Glucose; study 6, 0.05 mg/kg, time 0): 68 mg/dL | Glucose (Glucose; study 6, 0.05 mg/kg, time 15): 40 mg/dL | Glucose (Glucose; study 6, 0.05 mg/kg, time 30): 39 mg/dL | Glucose (Glucose; study 6, 0.05 mg/kg, time 45): 36 mg/dL | Glucose (Glucose; study 6, 0.05 mg/kg, time 60): 32 mg/dL | Glucose (Glucose; study 6, 0.05 mg/kg, time 90): 35 mg/dL | Glucose (Glucose; study 6, 0.05 mg/kg, time 120): 39 mg/dL | Glucose (Glucose; study 7, 0.05 mg/kg, time 0): 65 mg/dL | Glucose (Glucose; study 7, 0.05 mg/kg, time 15): 45 mg/dL | Glucose (Glucose; study 7, 0.05 mg/kg, time 30): 39 mg/dL | Glucose (Glucose; study 7, 0.05 mg/kg, time 45): 40 mg/dL | Glucose (Glucose; study 7, 0.05 mg/kg, time 60): 42 mg/dL | Glucose (Glucose; study 7, 0.05 mg/kg, time 90): 42 mg/dL | Glucose (Glucose; study 7, 0.05 mg/kg, time 120): 50 mg/dL | Glucose (Glucose; study 8, 0.05 mg/kg, time 0): 70 mg/dL | Glucose (Glucose; study 8, 0.05 mg/kg, time 15): 59 mg/dL | Glucose (Glucose; study 8, 0.05 mg/kg, time 30): 64 mg/dL | Glucose (Glucose; study 8, 0.05 mg/kg, time 45): 69 mg/dL | Glucose (Glucose; study 8, 0.05 mg/kg, time 60): 73 mg/dL | Glucose (Glucose; study 8, 0.05 mg/kg, time 90): 89 mg/dL | Glucose (Glucose; study 8, 0.05 mg/kg, time 120): 106 mg/dL | AUC0->∞ ([3]; dose 8 μg/kg, X ± SD (n = 3)): 100.7 ± 2.4 ng·min/mL | AUC0->∞/Dose ([3]; dose 8 μg/kg, X ± SD (n = 3)): 0.0126 ± 0.0003 kg·min/mL | Vd ([3]; dose 8 μg/kg, X ± SD (n = 3)): 157 ± 5 mL/kg | AUC0->∞ [3, 5]: 99.35 ng·min/mL and 99.32 ng·min/mL and 103.4 ng·min/mL | C0->∞/Dose [3, 5]: 0.0063 kg/mL and 0.0066 kg/mL and 0.0062 kg/mL | Co [3, 5]: 50.67 ng/mL and 52.64 ng/mL and 49.63 ng/mL | Vd [3, 5]: 157.88 mL/kg and 151.98 mL/kg and 161.19 mL/kg | kel [3, 5]: 0.51 min⁻¹ and 0.53 min⁻¹ and 0.48 min⁻¹ | AUC0->∞ ([3]; dose 9 μg/kg, X ± SD (n = 3)): 99.4 ± 23.6 ng·min/mL | AUC0->∞/Dose ([3]; dose 9 μg/kg, X ± SD (n = 3)): 0.0110 ± 0.0026 kg·min/mL | Co ([3]; dose 9 μg/kg, X ± SD (n = 3)): 46.1 ± 9.5 ng/mL | Vd ([3]; dose 9 μg/kg, X ± SD (n = 3)): 201 ± 43 mL/kg | kel ([3]; dose 9 μg/kg, X ± SD (n = 3)): 0.47 ± 0.02 min⁻¹ | AUC0->∞ [3, 6]: 99.55 ng·min/mL and 75.67 ng·min/mL and 122.89 ng·min/mL | C0->∞/Dose [3, 6]: 0.0052 kg/mL and 0.0040 kg/mL and 0.0061 kg/mL | Co [3, 6]: 46.79 ng/mL and 36.32 ng/mL and 55.30 ng/mL | Vd [3, 6]: 192.35 mL/kg and 247.80 mL/kg and 162.75 mL/kg | kel [3, 6]: 0.47 min⁻¹ and 0.48 min⁻¹ and 0.45 min⁻¹ | AUC0->∞/Dose ([3]; dose […], X ± SD (n = 5)): 0.0062 ± 0.0011 kg·min/mL | Vd ([3]; dose […], X ± SD (n = 5)): 219 ± 68 mL/kg | C0->∞/Dose ([3]; Average over all doses (2.5, 8, 9 μg/kg)): 0.0053 kg/mL | stability of insulin ([4]; SIF in presence of the enzyme (pancreatin)): degrades | Insulin % of theoretical ([4]; SIF no enzymes, with 4-CNAB, 0 minutes): 100.2% | Insulin % of theoretical ([4]; SIF no enzymes, with 4-CNAB, 4 minutes): 106.3% | Insulin % of theoretical ([4]; SIF no enzymes, with 4-CNAB, 45 minutes): 99.1% | Insulin % of theoretical ([4]; SIF no enzymes, with 4-CNAB, 24 hours): 105.6% | Insulin % of theoretical ([4]; SIF with pancreatin, with 4-CNAB, 0 minutes): 58.9% | Insulin % of theoretical ([4]; SIF with pancreatin, with 4-CNAB, 4 minutes): 19.3% | Insulin % of theoretical ([4]; SIF with pancreatin, with 4-CNAB, 6 minutes): 5.4% | Insulin % of theoretical ([4]; SIF without 4-CNAB or enzymes, 0 minutes): 92.9% | Insulin % of theoretical ([4]; SIF without 4-CNAB or enzymes, 15 minutes): 92.7% | Insulin % of theoretical ([4]; SIF without 4-CNAB or enzymes, 1 hour): 92.7% | Insulin % of theoretical ([4]; SIF without 4-CNAB or enzymes, 2 hours): 94.6% | Insulin % of theoretical ([4]; SIF without 4-CNAB or enzymes, 24 hours): 100.4% | stability of insulin ([4]; SIF without pancreatin): stable | insulin remained ([4]; SIF, first sampling time point (0 minutes)): 58.9% and 66.9%
